In the supplement of paper PMC10567573:

B1: LRRC45 (parent)
chain: FQTRQEMTSMSAELKMRAIQAEER

Variants of: B1
Assay: protein stability index of a GFP-peptide fusion (GPS, HEK-293T) (PSI 1-6); higher = more stable
Conditions: c terminus: a fixed tail appended
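Also: lentivirally expressed fusions sorted by FACS into six bins by GFP to DsRed ratio, PSI derived from sequencing read proportions per bin multiplied by bin number.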

Protein stability index: each site, then its substitutions
M7: W 2.68 | I 3.41 | T 4.61 | A 4.26 | C 3.6 | D 4.64 | F 3 | H 4.28 | Y 3.31 | N 3.71 | K 4.02 | P 3.71 | G 3.93 | E 4.57 | S 4.27 | V 3.4 | L 3.77 | R 4.26 | Q 4.14
E6: L 3.03 | H 3.02 | T 3.88 | D 3.63 | P 2.78 | C 3.33 | Q 3.44 | F 2.27 | A 3.42 | S 4.01 | G 3.48 | V 3.11 | I 2.5 | N 3.87 | R 3.72 | K 3.53 | M 3.36
A12: T 3.94 | S 4.24 | M 3.72 | Y 3.39 | I 3.3 | H 4.12 | F 3.3 | K 3.92 | C 3.71 | V 3.47 | P 4.28 | G 4.44 | L 3.92 | R 3.73 | D 4.26 | N 3.3 | E 4.44 | W 2.04 | Q 4.29
K15: D 4.65 | A 4.16 | T 4.01 | M 3.26 | I 3.27 | P 4.38 | C 3.86 | F 2.97 | V 3.29 | W 2.88 | E 4.88 | H 4.16 | R 4.38 | L 3.05 | N 4.26 | G 4.2 | Q 4.12 | S 4.23 | Y 3.59
Q2: L 3.76 | C 3.29 | H 2.27 | R 4.18 | S 4.85 | G 4.85 | V 2.23 | W 4.01 | D 4.48 | I 2.93 | Y 3.78 | A 3.67 | E 5.13 | F 4.36 | N 3.89 | T 3.92 | K 3.59 | P 4.69 | M 4.3
R17: A 4.34 | D 4.59 | P 4.33 | Y 3.67 | L 3.95 | K 4.25 | G 3.82 | Q 3.89 | E 4.33 | F 2.84 | M 4.18 | I 3.94 | V 3.75 | C 4.01 | S 3.43 | W 2.3 | N 4.07 | T 4.08 | H 4.09
E13: S 3.83 | F 3.1 | Q 4.04 | R 3.57 | V 3.35 | Y 2.73 | I 3.21 | P 3.69 | K 3.61 | M 3.47 | W 2.97 | C 3.74 | D 3.82 | T 3.53 | L 3.1 | N 3.1 | A 3.62 | H 3.08 | G 3.6
M16: Q 4.03 | R 4.21 | G 4 | I 3.52 | A 4.39 | V 3.99 | H 3.88 | E 4.68 | D 4.38 | F 3.75 | L 4.24 | K 4.36 | Y 3.83 | S 4.37 | W 3.66 | N 4.16 | C 3.79 | P 3.98 | T 3.96
S9: I 3.58 | E 4.49 | D 4.05 | A 4.43 | F 3.02 | W 2.32 | T 3.96 | Y 3.28 | G 4.11 | N 4.28 | V 3.51 | R 3.78 | H 3.84 | M 4.17 | Q 3.73 | C 3.41 | K 4.32 | P 4.01 | L 4.12
L14: T 4.38 | S 4.11 | W 3.2 | P 3.99 | Q 4.28 | D 3.89 | N 4.18 | E 3.99 | A 4.16 | V 4.21 | Y 3.74 | H 4.34 | M 3.83 | F 3.21 | R 4.23 | G 4.24 | C 3.72 | K 4.12 | I 4.13
T3: E 5.23 | A 4.32 | S 3.97 | P 4.04 | Q 3.83 | M 3.52 | V 3.43 | K 4.28 | G 3.72 | R 3.55 | D 4.4 | Y 3.22 | C 3.02 | F 3.95 | N 3.52 | W 2.06 | I 3.86 | H 3.42 | L 3.76
T8: C 3.11 | S 3.72 | H 4.38 | G 4.33 | K 3.86 | Q 4.28 | Y 2.69 | I 3.8 | D 4.16 | R 4.26 | V 3.76 | M 3.47 | A 3.85 | F 2.19 | L 3.79 | W 1.34 | E 4.57 | P 3.94 | N 3.92
A18: D 4.33 | T 3.95 | W 3.54 | N 3.88 | I 3.75 | L 3.92 | Q 3.85 | R 3.96 | P 3.45 | E 4.08 | K 3.72 | M 3.73 | S 3.82 | V 3.41 | C 3.69 | G 3.81 | H 3.33 | F 3.51
S11: I 3.09 | N 3.92 | F 4.22 | K 3.67 | W 1.96 | A 3.88 | H 4.43 | R 3.83 | T 3.73 | D 4.54 | L 3.85 | P 3.73 | C 3.63 | M 3.68 | G 3.97 | Y 2.93 | E 3.98 | V 3.74 | Q 4.16
F1: Q 5.21 | M 4.52 | R 4.42 | K 5.1 | I 4.27 | V 4.92 | H 4.85 | Y 4.02 | T 5.21 | N 5.13 | W 4.66 | S 5.1 | L 5.21 | P 4.5
Q5: H 3.54 | P 3.99 | I 3.11 | N 4.25 | Y 1.79 | D 4.71 | S 3.97 | E 4.31 | F 2.04 | R 3.7 | G 4.85 | W 1.66 | T 3.65 | A 3.83 | C 2.82 | M 3.32 | K 4.08 | V 3.97 | L 3.77
R4: S 4.39 | V 3.77 | F 3.37 | Q 4.14 | D 4.99 | M 3.94 | K 4.08 | T 4.46 | A 4.09 | G 4.34 | P 4.62 | C 4.63 | I 4.09 | N 4.35 | H 3.66 | L 4.4 | Y 3.88 | W 2.48 | E 4.95
M10: C 2.53 | D 3.98 | Y 3.97 | A 3.84 | V 3.94 | P 4.55 | N 4.14 | S 4.1 | H 4.12 | K 4.07 | F 4.1 | G 4.34 | T 4.28 | I 3.69 | W 3.07 | E 3.51 | L 4.27 | Q 4.21 | R 4.16
